According to patent publication US20010019714A1 (priority 1998, published 2001):

Molecular target: T1, HLA-A2 on T2 cells (Homo sapiens, UniProt P04439, D140Y/D185E/D98H/E176V/E277Q/G131W/G231S/I119V/I121R/I166T/I218V/L300P/L318F/N151K/N90K/P208A/P217A/Q86G/Q94H/R138H/R169H/T345S)
T1 construct: T2 cell line expressing the HLA-A2 molecules; endogenous in cells; host or cells: T2 cell line (TAP-deficient), from Dr Peter Creswell, Yale University
Test: peptide-induced MHC class 1 assembly assay (HLA-A2 binding and stabilization, FACS)
Assay type: cell-based
Conditions: for binding to HLA-A2 on T2 cells (shift of fluorescent peak): antibody BB7.2, FACS, FIG. 1; for order of potency by comparison of fluorescence indices: fluorescence index = mean fluorescence of peptide treated T2 cells / untreated T2 cells
Experimental: Location of the potential CTL containing motifs of the HIV-1(LAI) Rev protein has been predicted by the reported peptide-binding motif algorithms. […] The ability of the peptides containing these motifs to bind and stablize membrane-bound HLA-A2 molecule was assessed using the T2 cell line. The cell line has been well documented to have defective TAP transporter function resulting in the majority of the intracellularly generated peptides being unable to be transported into the endoplasmic reticulum to associate with the newly synthesized HLA class 1 molecules, i.e. HLA-A2 (see references 4, 5). […] Upon interaction with suitable peptides introduced exogenously, the stability of the HLA-A2 molecules can be restored.
T2 cell line expressing the HLA-A2 molecules was obtained from Dr Peter Creswell at the Howard Hughes Research Institute of Yale University. The cells were propagated in Iscove's complete medium (Iscove's medium supplemented with 10% heat-inactivated bovine serum, 120.0 units per ml of penicilin G sodium, 120 μg per ml of streptomycin sulphate, and 0.35 mg per ml of L-glutamine). The ability of individual 8 to 13 mer peptides, prepared as described in Example 1 and identified in Table 1, to bind and modulate the stability of the A2 molecules on T2 cells was determined using a peptide-induced MHC class 1 assembly assay, which was modified from a protocol described by Yuping Deng et al. (ref. 6).
In essence, 1×10^6 T2 cells were incubated with a specified concentration of the test peptide in 250.0 μl of Iscove's serum-free medium (Iscove's medium supplemented with 120.0 units per ml of penicillin G sodium, 120.0 ug per ml of streptomycin sulphate and 0.35 mg per ml of L-glutamine) in a sterile Eppendorf tube at 37° C. overnight. The cells were then incubated on ice for 30 min before 1.0 ml of Iscove's complete medium supplemented with 5.0 ug per ml of brefeldin A, 12.5 ug per ml of anisomycin and 5.0 ug per ml of cyclohexamide was added. The samples were then incubated for 3.0 hr in a 37° C. CO2 incubator.
In the presence of the drugs, further protein synthesis and intracellular delivery of HLA-A2 molecules to the cell surface are inhibited, and de-stabilization of the conformation of the membrane-bound class 1 molecules at the physiological temperature occurs.
The cells were then washed twice with ice-cold PBA (a buffer containing 0.9% sodium chloride, 0.5% bovine serum albumin and 0.02% sodium azide). 100.0 ul of PBA containing 5.0 ug of a conformation-sensitive HLA-A2-specific mouse monoclonal antibody, BB7.2 (ref. 7), was then added to each test sample. The reaction was allowed to take place on ice for 45 min. The cells were then washed three times with ice-cold PBA.
The binding of BB7.2 was then detected by adding […] containing 1.0 ug of goat anti-mouse IgG F(ab′) fluorescein (FITC) conjugate to each cell sample. After 30 min incubation on ice, the cells were washed twice with PBA, and twice again with PBS, pH 7.2. Cells were fixed immediately after washing was completed by adding 100.0 ul of 1.0% paraformaldehyde to the cell pellet. The cells were gently resuspended and were FACS analysed usually within three days after the experiments were completed.
The fluorescence index, which is an indicator for increased density of membrane-bound A2 molecules, was calculated by dividing the mean fluorescence of an experimental sample (peptide treated T2 cells) by the mean fluorescence of the control sample (T2 cells not treated with peptide).

ILVESPAVL [CLP-72]
binding to HLA-A2 on T2 cells (shift of fluorescent peak): capable of binding to HLA-A2 on T2 cells | order of potency by comparison of fluorescence indices: CLP-177>CLP-72>CLP-178>CLP-182

PLQLPPLERLIL [CLP-182]
binding to HLA-A2 on T2 cells (shift of fluorescent peak): capable of binding to HLA-A2 on T2 cells | order of potency by comparison of fluorescence indices: CLP-177>CLP-72>CLP-178>CLP-182

YLGRSAEPV [CLP-177]
binding to HLA-A2 on T2 cells (shift of fluorescent peak): capable of binding to HLA-A2 on T2 cells | order of potency by comparison of fluorescence indices: CLP-177>CLP-72>CLP-178>CLP-182

YLGRSAEPVPL [CLP-178]
binding to HLA-A2 on T2 cells (shift of fluorescent peak): capable of binding to HLA-A2 on T2 cells | order of potency by comparison of fluorescence indices: CLP-177>CLP-72>CLP-178>CLP-182
